Target: human PSMA protein (ELISA) (human, UniProt Q04609 44-750)
Assay: BLI (Octet)

Chain of human PSMA protein (ELISA) (Q04609 44-750): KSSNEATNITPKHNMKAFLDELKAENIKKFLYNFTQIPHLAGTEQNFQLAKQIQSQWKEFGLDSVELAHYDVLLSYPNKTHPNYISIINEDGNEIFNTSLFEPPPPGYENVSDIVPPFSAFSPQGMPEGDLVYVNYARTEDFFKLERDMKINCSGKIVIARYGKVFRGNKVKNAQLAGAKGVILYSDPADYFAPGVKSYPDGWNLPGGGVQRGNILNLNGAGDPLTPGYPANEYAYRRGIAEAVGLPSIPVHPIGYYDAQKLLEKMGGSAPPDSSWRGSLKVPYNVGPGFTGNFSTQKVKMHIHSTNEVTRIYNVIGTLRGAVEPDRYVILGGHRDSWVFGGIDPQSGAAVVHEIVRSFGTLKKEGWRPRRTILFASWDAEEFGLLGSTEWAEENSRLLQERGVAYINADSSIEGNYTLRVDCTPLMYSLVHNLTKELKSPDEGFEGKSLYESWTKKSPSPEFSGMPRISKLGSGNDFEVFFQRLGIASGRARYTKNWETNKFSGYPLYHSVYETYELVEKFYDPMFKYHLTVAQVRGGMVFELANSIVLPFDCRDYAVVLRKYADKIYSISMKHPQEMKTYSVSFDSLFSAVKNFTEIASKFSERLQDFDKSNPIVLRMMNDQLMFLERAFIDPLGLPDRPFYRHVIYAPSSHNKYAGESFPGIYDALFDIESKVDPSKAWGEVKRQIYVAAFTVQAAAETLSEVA

Binder | Kd
Anti-PSMA heavy chain-only antibody (UniAb) Clone ID 325795 (antibody, V domains shown) VH: EVQLLESGGGLVQPGGSLRLSCAASGFTFKFYAMSWVRQAPGKGPEWVSVISGSGGSTYYADSVKGRFTISRDNSKNTLHLQMNSLRAEDTAVYFCAKEIAEASRGFDYRGQGTLVTVSS | 24.9 nM
Anti-PSMA heavy chain-only antibody (UniAb) Clone ID 325972 (antibody, V domains shown) VH: EVQLLESGGGVVQPGRSLRLSCAASGFSFSGYGMHWVRQAPGKEREWVAVISYDGSNKYYADSVKGRFTISRDNSKNTLYLQMNSLRAEDTAVYYCAKDANWGQHPDHTSFDYRGQGTLVTVSS | 17 nM
